Laboratory results: the supplement of paper PMC9233669
This sample holds only a part of the variants without activity.

Assays:
biotinyl-Ile-oxazolone = test: self-aminoacylation, catalytic enhancement (BIO) (fold over background); higher = more active; k-Seq, kA / k0A0; sequences stand for … in GGGAAUGGAUCCACAUCUACGAAUUC…UUCACUGCAGACUUGACGAAGCUG
Outline: (§1)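 Mutagenized RNA pools with a 21-nt variable region (0.43 μM) reacted with each biotinyl-aminoacyl-oxazolone at 2–1250 μM. Reactions ran in 50 μL HEPES/NaCl/KCl/MgCl2/CaCl2 buffer with 5% acetonitrile, pH 6.9–7.0, for 90 minutes at room temperature. Streptavidin-captured RNA was quantified by triplicate qPCR and Illumina sequencing, and per-sequence fraction reacted was fit to a pseudo-first-order model with 1000 bootstraps. Catalytic enhancement is median kA divided by the uncatalyzed rate, the low-activity peak of a bimodal Gaussian fit.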

biotinyl-Phe-oxazolone = test: self-aminoacylation, catalytic enhancement (BFO) (fold over background); higher = more active; k-Seq, kA / k0A0; sequences stand for … in GGGAAUGGAUCCACAUCUACGAAUUC…UUCACUGCAGACUUGACGAAGCUG
Outline: as §1

biotinyl-Trp-oxazolone = test: self-aminoacylation, catalytic enhancement (BWO) (fold over background); higher = more active; k-Seq, kA / k0A0; sequences stand for … in GGGAAUGGAUCCACAUCUACGAAUUC…UUCACUGCAGACUUGACGAAGCUG
Outline: as §1

biotinyl-Leu-oxazolone = test: self-aminoacylation, catalytic enhancement (BLO) (fold over background); higher = more active; k-Seq, kA / k0A0; sequences stand for … in GGGAAUGGAUCCACAUCUACGAAUUC…UUCACUGCAGACUUGACGAAGCUG
Outline: as §1

biotinyl-Met-oxazolone = test: self-aminoacylation, catalytic enhancement (BMO) (fold over background); higher = more active; k-Seq, kA / k0A0; sequences stand for … in GGGAAUGGAUCCACAUCUACGAAUUC…UUCACUGCAGACUUGACGAAGCUG
Outline: as §1

biotinyl-Val-oxazolone = test: self-aminoacylation, catalytic enhancement (BVO) (fold over background); higher = more active; k-Seq, kA / k0A0; sequences stand for … in GGGAAUGGAUCCACAUCUACGAAUUC…UUCACUGCAGACUUGACGAAGCUG
Outline: as §1

Sequence	self-aminoacylation (biotinyl-Ile-oxazolone)	self-aminoacylation (biotinyl-Phe-oxazolone)	self-aminoacylation (biotinyl-Trp-oxazolone)	self-aminoacylation (biotinyl-Leu-oxazolone)	self-aminoacylation (biotinyl-Met-oxazolone)	self-aminoacylation (biotinyl-Val-oxazolone)
AAAUUCGCUAAUAGUCGCAAG [Fam3.1 aminoacylation ribozyme variant]	2.89	2.65	2.09	2.19	2.31	
AAAUUUGCAAAUAGUCGCAAG [Fam3.1 aminoacylation ribozyme variant]	1.9	2.27	1.82	1.82	1.35	1.37
AAAUUUGCCAAUAGUCGCAAG [Fam3.1 aminoacylation ribozyme variant]	1.77	2.17	2.14	1.76	1.69	1.65
AAAUUUGCUAAUAGUCCCAAG [Fam3.1 aminoacylation ribozyme variant]	1.24	1.68	0.979	0.923	0.644	1.03
AAAUUUGCUAAUAGUCGCACG [Fam3.1 aminoacylation ribozyme variant]	1.58	1.47	1.81	1.42	1.38	1.72
AAAUUUGCUAAUAGUCGCCAG [Fam3.1 aminoacylation ribozyme variant]	2.08	4.62	2.92	1.67	1.75	2.15
AAAUUUGCUAAUAGUCGCGAG [Fam3.1 aminoacylation ribozyme variant]	2.12	1.34	2.48	2.53	2.44	1.76
AAAUUUGCUAAUAGUUGCAAG [Fam3.1 aminoacylation ribozyme variant]	1.61	1.44	1.71	1.08	1.24	1.21
AAAUUUGCUCAUAGUCGCAAG [Fam3.1 aminoacylation ribozyme variant]	1.76	2.13	1.56	1.55	2.13	1.57
AAAUUUGCUUAUAGUCGCAAG [Fam3.1 aminoacylation ribozyme variant]	2.26	2.37	2.14	1.93	1.91	1.59
AAAUUUGGUAAUAGUCGCAAG [Fam3.1 aminoacylation ribozyme variant]	2.2	2.12	2.27	1.86	1.88	1.74
AAAUUUUCUAAUAGUCGCAAG [Fam3.1 aminoacylation ribozyme variant]	2.15	2.42		2.46		2.11
AACUUAGCUAAUAGUCGCAAG [Fam3.1 aminoacylation ribozyme variant]	2.2	2.75		3.27	2.42	
AACUUCGCUAAUAGUCGCAAG [Fam3.1 aminoacylation ribozyme variant]	2.98	14.5	3.06	3.44	3.5	3.03
AACUUUGCUAACAGUCGCAAG [Fam3.1 aminoacylation ribozyme variant]	2.17	2.06	2.08	3.43	2.15	
AACUUUGCUAAUAGUCGCAAG [Fam3.1 aminoacylation ribozyme variant]	2.22	3.71	2.41	2.46	2.2	
AACUUUGCUAAUAGUCGCACG [Fam3.1 aminoacylation ribozyme variant]	2.49	3.22	3.12	2.15		2.05
AACUUUGCUAAUAGUCGCAUG [Fam3.1 aminoacylation ribozyme variant]	2.77	2.98	2.85	2.79	2.35	1.89
AACUUUGCUAAUAGUCGCCAG [Fam3.1 aminoacylation ribozyme variant]	2.68	10.9	2.35	3.5	2.59	2.87
AACUUUGCUGAUAGUCGCAAG [Fam3.1 aminoacylation ribozyme variant]	2.81	3.74	3.67	3.01	2.81	2.24
AACUUUGGUAAUAGUCGCAAG [Fam3.1 aminoacylation ribozyme variant]	2.58	3.84	2.24	3.08	2.22	2.15
AAGAUUACUAAUAGUCGCAAG [Fam3.1 aminoacylation ribozyme variant]	1.6	2.29	1.92	1.44	1.77	1.41
AAGAUUGCUAAUAGUCCCAAG [Fam3.1 aminoacylation ribozyme variant]	1.28	2.39	0.756	0.778	0.597	0.756
AAGAUUGCUAAUAGUCGCAAA [Fam3.1 aminoacylation ribozyme variant]	1.58	1.39	2.09	1.43	1.37	1.3
AAGAUUGCUAAUAGUCGCUAG [Fam3.1 aminoacylation ribozyme variant]	1.23	0.773	0.937	0.963	0.811	1.04
AAGCACCUAGGUCAUCGGGUG [Fam2.2 aminoacylation ribozyme variant]	2.84	23.6	4.45	2.66	3.13	2.91
AAGCGUGCUAAUAGUCGCAAG [Fam3.1 aminoacylation ribozyme variant]	2.02	4.08	2.33		2.62	2.05

Sequence	self-aminoacylation (biotinyl-Ile-oxazolone)	self-aminoacylation (biotinyl-Phe-oxazolone)	self-aminoacylation (biotinyl-Trp-oxazolone)	self-aminoacylation (biotinyl-Leu-oxazolone)	self-aminoacylation (biotinyl-Met-oxazolone)	self-aminoacylation (biotinyl-Val-oxazolone)
AAGCUUGCAAAUAGUCGCAAG [Fam3.1 aminoacylation ribozyme variant]	2.14	7.03	2.14	2.07	2.53	2.25
AAGCUUGCUAAAAGUCGCAAG [Fam3.1 aminoacylation ribozyme variant]	2.16	5.12	3.43	3.1	3.31	1.79
AAGCUUGCUAAGAGUCGCAAG [Fam3.1 aminoacylation ribozyme variant]	2.51	3.44	3.08	2.66	2.23	2.44
AAGCUUGCUAAUAGGCGCAAG [Fam3.1 aminoacylation ribozyme variant]	1.38	1.46	1.2	1.66	1.12	1.16
AAGGUUGCUAAUAGGCGCAAG [Fam3.1 aminoacylation ribozyme variant]	1.19	1.11	1.17	1.17	0.729	0.796
AAGGUUGCUAAUAGUCGCGAG [Fam3.1 aminoacylation ribozyme variant]	1.56	2.49	1.64	0.991	1.64	1.5
AAGGUUGCUAAUAGUCUCAAG [Fam3.1 aminoacylation ribozyme variant]	1.13	2.46	1.52	0.944	1.05	0.996
AAGGUUGCUAAUAUUCGCAAG [Fam3.1 aminoacylation ribozyme variant]	1.59	1.6	1.22	2.03	1.22	1.26
AAGGUUGCUAAUGGUCGCAAG [Fam3.1 aminoacylation ribozyme variant]	1.06	1.68	0.994	0.828	0.949	1
AAGGUUGGUAAUAGUCGCAAG [Fam3.1 aminoacylation ribozyme variant]	1.48	2.09	2.15	1.55	1.59	1.38
AAGUUUCCUAAUAGUCGCAGG [Fam3.1 aminoacylation ribozyme variant]	2.09	11.8		2.06	2.16	
AAGUUUGCUAAUAUUCGCGAG [Fam3.1 aminoacylation ribozyme variant]	2.04	16.5	3.31		2.02	
AUUACCCUGGUCCUGGAGUGA [Fam2.1 aminoacylation ribozyme variant]	2.07	10.7	3.33	2.79	3.13	
AUUACCCUGGUGAGCGAGUGA [Fam2.1 aminoacylation ribozyme variant]	2.4	22.2	3.97	3.8	3.94	
AUUCACCGAGCUCAUCGGGUG [Fam2.2 aminoacylation ribozyme variant]	2.4	17.4		2.46	2.08	3.41
AUUCACCUAGGACAUCGGGUA [Fam2.2 aminoacylation ribozyme variant]	2.02	7.17	2.09	2.63	2.72	
AUUCACCUAGGUCAACGGGCG [Fam2.2 aminoacylation ribozyme variant]	2.59	10.4		3.24	2.85	
AUUCACCUAGGUCAUCGCCUG [Fam2.2 aminoacylation ribozyme variant]	2.01	8.71	2.11	3.01		2.44
AUUCUCCUAGGUCAUCGGGGG [Fam2.2 aminoacylation ribozyme variant]	2.7		3	3.88	3.48	3.29
CCAAACUUCAAGCAAUCGGGC [Fam1B.1 aminoacylation ribozyme variant]	2.08		2.01		2.17	2.26
CCACACCUCAAGCAUUCGGUC [Fam1B.1 aminoacylation ribozyme variant]	2.26	2.12	2.49			2.54
CCACACUUCAAGCAACCGGGC [Fam1B.1 aminoacylation ribozyme variant]	2.77	3.1	4.79	3.43		3.18
CCACACUUCAGGCAAUCGCUC [Fam1B.1 aminoacylation ribozyme variant]	2.5	17.5		2.71		2.04
CCAGACUUCAAGCAUUCGGUC [Fam1B.1 aminoacylation ribozyme variant]	2.03			2.08	2.12	2.16
CUUCACCUAGUUCAUCGGGUG [Fam2.2 aminoacylation ribozyme variant]	2.15		2.53	2.87	2.54	2.27
GAGUUGGCUAAUAGUCGCAAG [Fam3.1 aminoacylation ribozyme variant]	2.02	2.86	3.02		2.04	2.22
